In PMC10872949:
Like-named read-outs stand apart in the source and are kept apart here.

Legend:
Assay in all cases: enzyme inhibition assay
[1] = target: Recombinant human cathepsin L (human) (UniProt P07711)
[2] = target: Recombinant human cathepsin S (human) (UniProt P25774)
[3] = target: Recombinant human cathepsin S (human) (UniProt P25774); remark: listed apart in the source

Sequence of UniProt P25774 (P25774 17-331): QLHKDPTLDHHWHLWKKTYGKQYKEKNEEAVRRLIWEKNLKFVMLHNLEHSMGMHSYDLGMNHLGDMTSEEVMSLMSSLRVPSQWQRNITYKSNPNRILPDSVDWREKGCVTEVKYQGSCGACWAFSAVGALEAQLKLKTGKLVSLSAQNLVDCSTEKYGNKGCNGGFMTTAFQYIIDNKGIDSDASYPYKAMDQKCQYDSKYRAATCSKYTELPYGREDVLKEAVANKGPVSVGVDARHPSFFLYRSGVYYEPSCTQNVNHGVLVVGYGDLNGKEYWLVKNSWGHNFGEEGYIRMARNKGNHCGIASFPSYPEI
Sequence of UniProt P07711 (P07711 18-333): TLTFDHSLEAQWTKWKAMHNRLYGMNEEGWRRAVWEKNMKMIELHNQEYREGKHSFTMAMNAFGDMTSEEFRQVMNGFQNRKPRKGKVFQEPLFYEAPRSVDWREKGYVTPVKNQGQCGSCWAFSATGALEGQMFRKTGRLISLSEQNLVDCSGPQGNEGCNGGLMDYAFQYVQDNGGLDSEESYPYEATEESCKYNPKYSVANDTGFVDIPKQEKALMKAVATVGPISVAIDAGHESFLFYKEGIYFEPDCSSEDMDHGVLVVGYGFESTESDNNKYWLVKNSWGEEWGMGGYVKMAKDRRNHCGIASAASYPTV

Ki [1]	Ki [2]	Ki [3]	Substance
49.3 nM	6.03 nM	–	Her-HC-CTSSpp IgG (from UniProt P25774 17-113) (antibody)
24.5 nM	2.12 nM	2.21 nM	Syn-LC-CTSSpp Fab (from UniProt P25774 17-113)
